According to patent US20200190209A1 (BLACK BELT THERAPEUTICS, published 2020):
Numbering of substitutions follows the chain as printed. Several values for one entry are separate records, joined by “and”; a condition that tells them apart may be missing. Equal values may be shown once. Read-outs that look alike come from different tables or passages of the source. One block for each binder: values may come before it.

Key:
[1] = biological target: T1, human CD38 (full length, on cells) (human, UniProt P28907 1-300); test: cell-based or functional assay
[2] = biological target: T2, recombinant human CD38 his tagged (extracellular domain) (human, UniProt P28907 43-300); test: summary, human CD38 extracellular protein
T2 construct: also called rhCD38; rhCD38-his; not shown: Histidine tag

[3] = biological target: T2, recombinant human CD38 his tagged …; test: Octet BLI, affinity, monovalent human CD38-HIS; IgG1
[4] = biological target: T2, recombinant human CD38 his tagged …; test: SPR Biacore 2000; IgG1 captured, rhCD38-his as analyte
Procedure: (§1) Anti-human antibody was initially immobilised across all flow cells in analysis buffer (pH 7.4, 10mM HEPES, 150mM NaCl, 3mM EDTA, 0.05% Tween 20) to an RU of between 12,000-14,000 over 10 minutes. […] Dissociation was performed in analysis buffer over 10 minutes. Regeneration steps between sample concentrations were performed in 3M MgCl₂, three times for 0.5 minutes. A flow rate of 25 μl/min was maintained throughout the process. Kinetics data were fit using a global fit on the analysis software provided by Biacore with reference subtraction.

[5] = biological target: T2, recombinant human CD38 his tagged …; test: Octet BLI, avidity; rhCD38-his on Ni-NTA sensor, IgG1 in solution
Procedure: Avidity binding measurements of anti-CD38 Antibodies: Ni-NTA sensors were equilibrated off-line in assay buffer for 30 minutes and then monitored on-line for 60 seconds for baseline establishment. […] Then the antibody was associated at different concentrations (as described in FIGS. 25 and 30) for 30-50 minutes. Afterwards they were transferred to assay buffer for 20-30 min for off-rate measurement. Kinetics data were fit using a 1:1 binding model in the data analysis software provided by ForteBio.

[6] = biological target: T2, recombinant human CD38 his tagged …; test: Octet BLI, affinity, monovalent human CD38-HIS; IgG4
[7] = biological target: T1, human CD38 (full length, on cells); test: cell-based or functional assay; remark: listed apart in the source
[8] = biological target: T1, human CD38 (full length, on cells); test: flow cytometry titration on human cells, gated on CD4-positive cells
Procedure: (§2) Unbound primary antibody was removed by washing followed by staining with a secondary antibody (5 μg/ml) 30 minutes on ice. All samples were stained in triplicates with appropriate CD3, CD4 and CD8 cross-reactive antibodies. Samples were measured by flow cytometry. For data analysis live cells were gated using FSC vs SSC parameters during sample acquisition. Mean fluorescence intensities (MFI) of stained cells were plotted on an XY chart, graphing MFI against the log of the concentration and the data fit to a non-linear regression curve from which the EC50 was calculated.

[9] = biological target: T1, human CD38 (full length, on cells); test: flow cytometry titration on human cells, gated on CD8-positive cells
Procedure: as §2

[10] = biological target: T3, Cynomolgus monkey CD38 (on T cells) (Cynomolgus monkey, UniProt Q5VAN0 1-301); test: flow cytometry titration on cynomolgus T cells, gated on CD4-positive and on CD8-positive cells
T3 construct: whole, on cells; also called cyno CD38
T3 sequence (Q5VAN0 whole entry): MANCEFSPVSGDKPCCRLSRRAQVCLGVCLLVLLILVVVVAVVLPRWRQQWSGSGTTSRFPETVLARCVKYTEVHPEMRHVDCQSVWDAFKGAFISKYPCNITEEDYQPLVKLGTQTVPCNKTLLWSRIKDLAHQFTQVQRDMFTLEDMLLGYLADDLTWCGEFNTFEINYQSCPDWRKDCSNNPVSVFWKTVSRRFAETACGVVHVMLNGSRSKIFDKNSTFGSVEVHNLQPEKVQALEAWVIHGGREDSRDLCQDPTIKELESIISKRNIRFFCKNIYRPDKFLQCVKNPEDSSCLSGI
Procedure: as §2

[11] = biological target: T2, recombinant human CD38 his tagged …; test: Octet BLI, affinity, monovalent human CD38-HIS; yeast produced
[12] = biological target: T1, human CD38 (full length, on cells); test: cell-based or functional assay; remark: listed apart in the source
[13] = biological target: T1, human CD38 (full length, on cells); test: cell-based or functional assay; remark: listed apart in the source
[14] = biological target: T2, recombinant human CD38 his tagged …; test: Octet BLI affinity, rhCD38
[15] = biological target: T2, recombinant human CD38 his tagged …; test: SPR Biacore affinity, rhCD38-his
Procedure: as §1

[16] = biological target: T1, human CD38 (full length, on cells); test: flow cytometry, binding to Daudi cells
[17] = biological target: T1, human CD38 (full length, on cells); test: flow cytometry titration on human PBMC, gated on CD4-positive cells
[18] = biological target: T1, human CD38 (full length, on cells); test: flow cytometry titration on human PBMC, gated on CD8-positive cells
[19] = biological target: T3, Cynomolgus monkey CD38 (on T cells); test: flow cytometry titration on cynomolgus T cells, gated on CD4-positive cells
[20] = biological target: T3, Cynomolgus monkey CD38 (on T cells); test: flow cytometry titration on cynomolgus T cells, gated on CD8-positive cells
[21] = biological target: T1, human CD38 (full length, on cells); test: cell-based or functional assay; remark: listed apart in the source
[22] = biological target: T2, recombinant human CD38 his tagged …; test: Octet BLI affinity, rhCD38; remark: listed apart in the source
[23] = biological target: T2, recombinant human CD38 his tagged …; test: SPR Biacore affinity, rhCD38-his; remark: listed apart in the source
Procedure: as §1

[24] = biological target: T1, human CD38 (full length, on cells); test: flow cytometry, binding to Daudi cells; remark: listed apart in the source
[25] = biological target: T2, recombinant human CD38 his tagged …; test: Octet BLI affinity, rhCD38; Octet value of Table 5 (variant comparison); Table 1A gives 3.38E-09 for IgG1

ADCC EC50, Daudi target cells [1]: 0.03 µg/mL | ADCC max. lysis, Daudi target cells [1]: 55% | Kd [2]: ~1 nM | Kd [3]: 2.3 nM | Kd [4]: 1 nM | Kd [5]: 0.0181 nM
B1: aCD38-a-327 (human IgG1) (antibody, V domains shown)
VH: QVQLQESGPGLVKPSQTLSLTCTVSGGSISSGGYYWSWIRQHPGKGLEWIGYIYYSGSTYYNPSLKSRVTISVDTSKNQFSLKLSSVTAADTAVYYCARAKSELVLPYYYYMDVWGKGTTVTVSS
VL: not shown
notes: Human IgG1

Kd [6]: 2.99 nM
B2: aCD38-a-327 (IgG4) (antibody, V domains shown)
VH: B1 VH
VL: not shown

ADCC EC50, Daudi target cells [1]: 0.0013 µg/mL | ADCC max. lysis, Daudi target cells [1]: 43% | CDC EC50, Daudi cells, 10% complement [7]: 0.19 µg/mL | CDC max. lysis, Daudi cells, 10% complement [7]: 16.9% | Kd [4]: 1.2 nM | Kd [5]: 0.0735 nM | EC50 (read off the curve) [8]: ~0.4 µg/mL | EC50 (read off the curve) [9]: ~0.2 µg/mL
B3: aCD38-a-306 (human IgG1) (antibody, V domains shown)
VH: not shown
VL: DIQMTQSPSSLSASVGDRVTITCRASQSISSYLNWYQQKPGKAPKLLIYGASSLQSGVPSRFSGSGSGTDFTLTISSLQPEDFATYYCQQRSSTPITFGGGTKVEIK
notes: Human IgG1
binding result [10]: no binding (tested: about 20 µg/ml (log 1.3))

Kd [11]: 48 nM
B4: aCD38-a-306 (yeast produced) (antibody, V domains shown)
VH: not shown
VL: B3 VL

ADCC EC50, Daudi target cells [1]: 0.00032 µg/mL and 0.0008 µg/mL and 0.00042 µg/mL | CDC EC50, Daudi cells, 10% complement [7]: 0.17 µg/mL and 0.34 µg/mL and 0.26 µg/mL | CDC EC50, Raji cells, 10% complement [12]: 0.3 µg/mL | CDC EC50, Raji cells, 10% complement (repeat) [12]: 0.17 µg/mL | ADCC target lysis EC50 [13]: 0.0059 µg/mL | ADCC target lysis, max. % lysis [13]: 44% | Kd [14]: 5.79 nM | Kd [15]: 2 nM | EC50 [16]: 0.341 µg/mL | Max MFI [16]: 2320 MFI | Kd [3]: 8.81 nM | Kd [4]: 2 nM | Kd [5]: 0.177 nM | EC50 (read off the curve) [17]: ~0.4 nM | EC50 (read off the curve) [18]: ~0.4 nM | EC50 (read off the curve) [19]: ~0.7 µg/mL | EC50 (read off the curve) [20]: ~0.8 µg/mL
B5: aCD38-b-348 (human IgG1) (antibody, V domains shown)
VH: QLQLQESGPGLVKPSETLSLTCTVSGGSISSSDYYWGWIRQPPGKGLEWIGSIYYSGSTYYNPSLKSRVTISVDTSKNQFSLKLSSVTAADTAVYYCARGQYSSGWYAYPFDMWGQGTMVTVSS
VL: EIVLTQSPGTLSLSPGERATLSCRASQSVRSSYLAWYQQKPGQAPRLLIYGASSRATGIPDRFSGSGSGTDFTLTISRLEPEDFAVYYCQQDGNVYTFGGGTKVEIK
notes: Human IgG1

Kd [6]: 9.24 nM
B6: aCD38-b-348 (IgG4) (antibody, V domains shown)
VH: B5 VH
VL: B5 VL

ADCC target lysis EC50 [21]: 0.0024 µg/mL | ADCC target lysis, max. % lysis [21]: 47% | Kd [22]: 19.9 nM | Kd [23]: 4.7 nM | EC50 [24]: 0.651 µg/mL | Max MFI [24]: 2300 MFI
B7: aCD38-b-329-m6 (antibody, IgG1, V domains shown)
VH: B5 VH
VL: B5 VL with G93E, N94A, Y96F

ADCC target lysis EC50 [13]: 0.0043 µg/mL | ADCC target lysis, max. % lysis [13]: 39% | Kd [14]: 55.1 nM | Kd [15]: 28 nM | EC50 [16]: 0.558 µg/mL | Max MFI [16]: 2100 MFI
B8: aCD38-b-348-m3 (antibody, IgG1, V domains shown)
VH: B5 VH
VL: B5 VL with G93A

ADCC target lysis EC50 [13]: 0.0014 µg/mL | ADCC target lysis, max. % lysis [13]: 38% | Kd [14]: 70.1 nM | Kd [15]: 27 nM | EC50 [16]: 0.299 µg/mL | Max MFI [16]: 2020 MFI
B9: aCD38-b-348-m4 (antibody, IgG1, V domains shown)
VH: B5 VH
VL: B5 VL with D92E

ADCC EC50, Daudi target cells [1]: 0.011 µg/mL and 0.0062 µg/mL | ADCC target lysis EC50 [21]: 0.0062 µg/mL | ADCC target lysis, max. % lysis [21]: 49% | Kd [23]: 0.62 nM | Kd [2]: ~1 nM | EC50 [24]: 0.734 µg/mL | Max MFI [24]: 2510 MFI | Kd [3]: 3.38 nM | Kd [4]: 0.62 nM | Kd [25]: 2.38 nM
B10: aCD38-b-329 (human IgG1) (antibody, V domains shown)
VH: B5 VH
VL: B5 VL with N94A, Y96F
notes: Human IgG1

ADCC target lysis EC50 [13]: 0.0025 µg/mL | ADCC target lysis, max. % lysis [13]: 44% | Kd [14]: 39.9 nM | Kd [15]: 6.8 nM | EC50 [16]: 0.499 µg/mL | Max MFI [16]: 2220 MFI
B11: aCD38-b-348-m2 (antibody, IgG1, V domains shown)
VH: B5 VH
VL: B5 VL with G93S

ADCC target lysis EC50 [13]: 0.0028 µg/mL | ADCC target lysis, max. % lysis [13]: 38% | Kd [14]: 24.7 nM | Kd [15]: 63 nM | EC50 [16]: 0.485 µg/mL | Max MFI [16]: 1610 MFI
B12: aCD38-b-348-m1 (antibody, IgG1, V domains shown)
VH: B5 VH
VL: B5 VL with D92E, G93A
notes: also called aCD38-b-348-ml

ADCC target lysis EC50 [21]: 0.0035 µg/mL | ADCC target lysis, max. % lysis [21]: 43% | Kd [22]: 26 nM | Kd [23]: 4.9 nM | EC50 [24]: 0.745 µg/mL | Max MFI [24]: 2210 MFI
B13: aCD38-b-329-m7 (antibody, IgG1, V domains shown)
VH: B5 VH
VL: B5 VL with G93S, N94A, Y96F
